Consider four molecules from paper PMC4253074 (Journal of molecular biology, 2014).

Holding throughout (test): cross-linking
Assay [1] deals with PDE6 catalytic dimer (Pαβ) (bovine, UniProt P11541 1-859; P23439 1-853).
The target in assay [2] is T1, PDE6 β-subunit (Pβ), catalytic subunit of bovine rod photoreceptor phosphodiesterase (bovine, UniProt P23439 1-853).
T1 sequence (looked up): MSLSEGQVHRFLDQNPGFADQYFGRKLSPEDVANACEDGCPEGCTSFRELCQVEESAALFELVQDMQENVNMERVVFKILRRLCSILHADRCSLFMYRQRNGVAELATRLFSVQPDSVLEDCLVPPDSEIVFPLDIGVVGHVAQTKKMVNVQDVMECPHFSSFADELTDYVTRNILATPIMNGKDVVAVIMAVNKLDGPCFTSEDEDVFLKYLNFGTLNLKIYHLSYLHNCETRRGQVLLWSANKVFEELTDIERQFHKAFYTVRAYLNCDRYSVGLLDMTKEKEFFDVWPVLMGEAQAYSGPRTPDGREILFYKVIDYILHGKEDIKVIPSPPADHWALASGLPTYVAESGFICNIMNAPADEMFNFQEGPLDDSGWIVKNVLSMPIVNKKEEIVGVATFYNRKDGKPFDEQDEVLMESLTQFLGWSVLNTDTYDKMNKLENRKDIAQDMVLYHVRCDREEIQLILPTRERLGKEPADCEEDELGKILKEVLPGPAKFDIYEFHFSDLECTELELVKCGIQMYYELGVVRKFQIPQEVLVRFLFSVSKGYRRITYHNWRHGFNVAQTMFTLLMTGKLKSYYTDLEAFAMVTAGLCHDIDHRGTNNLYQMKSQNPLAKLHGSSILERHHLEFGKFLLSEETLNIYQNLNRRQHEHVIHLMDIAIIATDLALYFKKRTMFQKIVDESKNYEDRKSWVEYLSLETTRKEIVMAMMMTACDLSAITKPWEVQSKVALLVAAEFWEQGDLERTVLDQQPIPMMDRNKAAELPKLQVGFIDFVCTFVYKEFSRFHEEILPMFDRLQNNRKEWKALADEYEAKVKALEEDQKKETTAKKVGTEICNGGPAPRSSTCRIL

Assay [3] concerns the target T2, PDE6 α-subunit (Pα), catalytic subunit of bovine rod photoreceptor phosphodiesterase (bovine, UniProt P11541 1-859).
T2 sequence (looked up): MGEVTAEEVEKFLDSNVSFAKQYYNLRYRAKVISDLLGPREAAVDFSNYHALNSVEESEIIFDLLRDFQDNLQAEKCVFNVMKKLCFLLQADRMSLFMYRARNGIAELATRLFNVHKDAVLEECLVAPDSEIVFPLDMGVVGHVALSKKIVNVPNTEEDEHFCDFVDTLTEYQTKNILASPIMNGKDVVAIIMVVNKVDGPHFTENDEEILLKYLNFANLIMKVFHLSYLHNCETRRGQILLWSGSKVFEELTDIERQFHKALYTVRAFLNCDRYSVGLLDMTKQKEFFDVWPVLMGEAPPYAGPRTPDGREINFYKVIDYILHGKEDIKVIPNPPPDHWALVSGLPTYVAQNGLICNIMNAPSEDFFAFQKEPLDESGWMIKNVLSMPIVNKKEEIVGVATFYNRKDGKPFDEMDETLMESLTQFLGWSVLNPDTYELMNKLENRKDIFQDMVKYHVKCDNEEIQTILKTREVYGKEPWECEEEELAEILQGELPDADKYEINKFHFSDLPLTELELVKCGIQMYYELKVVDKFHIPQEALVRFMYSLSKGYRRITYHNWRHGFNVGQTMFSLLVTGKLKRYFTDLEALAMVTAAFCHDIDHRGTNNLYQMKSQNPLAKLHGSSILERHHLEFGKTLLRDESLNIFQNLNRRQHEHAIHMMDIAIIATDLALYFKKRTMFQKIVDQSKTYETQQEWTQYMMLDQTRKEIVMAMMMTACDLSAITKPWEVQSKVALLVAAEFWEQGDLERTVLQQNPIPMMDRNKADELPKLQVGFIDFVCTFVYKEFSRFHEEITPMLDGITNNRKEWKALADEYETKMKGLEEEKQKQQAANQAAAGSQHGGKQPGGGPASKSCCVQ

Substitutions are numbered along the chain they refer to.

B1: PDE6 inhibitory γ-subunit (Pγ), endogenous, in the purified PDE6 holoenzyme (natural protein, bovine, UniProt P04972 1-87, looked up)
chain: MNLEPPKAEIRSATRVMGGPVTPRKGPPKFKQRQTRQFKSKPPKKGVQGFGDDIPGMEGLGTDITVICPWEAFNHLELHELAQYGII
In the case of B1, in assay [1], the binding result was “binds”.

B2: wild-type Pγ, recombinant (Pγ 1–87) (natural protein, bovine, UniProt P04972 1-87, looked up)
chain: B1 chain
As to B2, the binding result in assay [1] is given as “binds”.

B3: Pγ 30C-MBP (natural protein, bovine, UniProt P04972 1-87, looked up)
chain: B1 chain with F30C, C68S
modifications: 4-(N-maleimido)benzophenone (MBP) on Cys30
On to B3, for which the binding result in assay [2] is given as “binds”.

B4: Pγ 73C-MBP (natural protein, bovine, UniProt P04972 1-87, looked up)
chain: B1 chain with C68S, F73C
modifications: 4-(N-maleimido)benzophenone (MBP) on Cys73
In the case of B4, the binding result in assay [3] and in assay [2] was “binds” in each case.
